Results as given in US20220185894A1 (F STAR THERAPEUTICS, published 2022).

T1: mouse LAG-3 expressed on cells (mouse, UniProt Q61790 24-521)
T1 construct: also called mLAG-3; murine LAG-3 HEK
T1 sequence: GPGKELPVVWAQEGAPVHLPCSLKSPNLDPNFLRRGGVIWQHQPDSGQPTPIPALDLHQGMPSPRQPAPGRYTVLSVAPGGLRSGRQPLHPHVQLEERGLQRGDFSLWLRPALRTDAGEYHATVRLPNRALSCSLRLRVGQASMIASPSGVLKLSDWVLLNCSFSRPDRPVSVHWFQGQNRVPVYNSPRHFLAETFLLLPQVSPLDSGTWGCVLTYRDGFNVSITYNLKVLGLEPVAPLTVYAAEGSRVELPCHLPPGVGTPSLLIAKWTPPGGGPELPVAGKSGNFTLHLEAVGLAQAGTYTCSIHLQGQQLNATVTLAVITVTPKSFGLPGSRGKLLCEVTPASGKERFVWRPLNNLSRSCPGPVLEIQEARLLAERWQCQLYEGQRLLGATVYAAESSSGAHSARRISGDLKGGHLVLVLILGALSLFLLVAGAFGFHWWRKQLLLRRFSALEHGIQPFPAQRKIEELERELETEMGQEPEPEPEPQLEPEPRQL

T2: human FcγRIIb/c (R&D Systems, 1875-CD) (human, UniProt P31994 46-217)
T2 construct: Bought recombinant protein
T2 sequence (looked up): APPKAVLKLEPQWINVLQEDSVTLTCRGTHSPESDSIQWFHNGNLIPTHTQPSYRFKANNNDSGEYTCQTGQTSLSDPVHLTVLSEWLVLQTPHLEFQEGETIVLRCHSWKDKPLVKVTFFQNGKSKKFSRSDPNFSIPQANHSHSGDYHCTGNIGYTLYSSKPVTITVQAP

T3: human FcγRIIa (R&D Systems, 1330-CD) (human, UniProt P12318 36-218, limits assumed)
T3 construct: Bought recombinant protein
T3 sequence (looked up): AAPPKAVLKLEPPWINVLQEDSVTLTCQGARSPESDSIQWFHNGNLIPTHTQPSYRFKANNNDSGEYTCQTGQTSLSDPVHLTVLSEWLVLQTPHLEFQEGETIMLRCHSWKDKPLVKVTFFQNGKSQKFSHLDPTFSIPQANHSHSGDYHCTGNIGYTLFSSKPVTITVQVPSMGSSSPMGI


Columns and labels:
[1] = biological target: T1, mouse LAG-3 expressed on cells; test: flow cytometry on HEK cells expressing murine LAG-3
Protocol: The affinity of the mAb² (all containing the LALA mutations) binding to cell expressed murine LAG-3 or murine PD-L1 was determined using flow cytometry. HEK cells expressing murine LAG-3 or murine PD-L1 grown in DMEM (Life Technologies, 61965-026) containing 10% FBS (Life Technologies, 10270-1-6), 100 μg/ml Hygromycin B (Melford Laboratories Ltd, Z2475), 15 μg/ml Blasticidin (Melford Laboratories Ltd, B1105) and 1 μg/ml Doxycyclin (Sigma, D9891) were detached from tissue culture flasks using cell dissociation buffer (Life Technologies, 13151-014) and seeded in V-bottom 96-well plates (Costar, 3897) at 2×10⁵ cells/well. The plates were centrifuged at 1500 rpm for 3 min at 4° C. to pellet the cells. A dilution series of the mAb² (or control mAb) were incubated with the cells in a 60 μl volume for 1 h at 4° C. The plates were washed and secondary antibody (Anti-human Fc-488, Jackson ImmunoResearch, 109-546-098 for mAb² or Anti-Rat IgG (H+L), Alexa Fluor 488, ThermoFisher, A-11006 for anti-LAG-3 control, C9B7W) was diluted 1:1000 in PBS and 50 μl was added to the cells for 30 min at 4° C. (plates were kept in the dark). The plates were washed then cells were resuspended in 50 μl FACS Cell Fix (BD Bioscience, 340181) for 15 minutes, then washed and resuspended in 100 μl PBS containing 1 μg/ml DAPI (Biotium, 40043). The plates were read using Canto II flow cytometer (BD Bioscience). Dead cells were excluded and the fluorescence in the FITC channel (488 nm/530/30) was measured. The data was fit using log (agonist) vs response in GraphPad Prism Software. The plates were read on a BD FACSCanto II cytometer (BD Biosciences) and the data analysed using FlowJo.

[2] = biological target: T4, human FcγRI (R&D Systems, 1257-FC) (human, UniProt P12314 16-288); test: SPR, Biacore T200; FcγR immobilised, 200 µg/ml injected
T4 construct: Bought recombinant protein
T4 sequence (P12314 16-288 limits assumed): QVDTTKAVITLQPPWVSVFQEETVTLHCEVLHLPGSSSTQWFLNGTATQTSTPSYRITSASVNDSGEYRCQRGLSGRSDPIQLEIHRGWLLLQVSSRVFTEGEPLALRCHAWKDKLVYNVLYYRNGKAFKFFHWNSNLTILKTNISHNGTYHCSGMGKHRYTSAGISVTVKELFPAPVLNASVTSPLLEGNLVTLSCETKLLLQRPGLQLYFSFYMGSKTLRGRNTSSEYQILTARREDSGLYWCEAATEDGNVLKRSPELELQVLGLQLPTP
Protocol: (§1) The introduction of the LALA mutation in the CH2 domain of human IgG1 is known to reduce Fc γ receptor binding (Bruhns, P., et al. (2009); and Xu, D. et al. (2000)). […] The human FcγR binding assay was performed on a Biacore T200 instrument (GE Healthcare) using the Fcabs in the mock mAb² format. […] For each immobilized chip a flow cell was left blank for background subtraction. FcγR were immobilized using a concentration of 5 μg/ml in sodium acetate pH5 (ForteBio, 18-1069) and injected at a flow rate of 10 μl/min in 15 second cycles until the required immobilization level was reached.
(§2) The flow cells were regenerated by injecting 10 mM sodium hydroxide (VWR, 28244.262) at a flow rate of 100 μl/min for 30 seconds. The data analysis was performed with BiaEvaluation software version 3.2 RC1 by double referencing against the blank flow cell (without immobilized FcγR) and subtracting a buffer cycle from test mAb².

[3] = biological target: T5, human FcγRIIIa (R&D Systems, 4325-FC) (human, UniProt P08637 17-208); test: as above
T5 construct: Bought recombinant protein
T5 sequence (P08637 17-208 limits assumed): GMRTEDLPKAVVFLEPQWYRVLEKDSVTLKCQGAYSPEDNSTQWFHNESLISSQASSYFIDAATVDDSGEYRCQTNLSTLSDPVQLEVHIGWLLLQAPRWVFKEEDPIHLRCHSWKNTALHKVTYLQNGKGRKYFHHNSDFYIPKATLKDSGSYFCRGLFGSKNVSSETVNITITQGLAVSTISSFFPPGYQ
Protocol: as §1, §2

[4] = biological target: T2, human FcγRIIb/c (R&D Systems, 1875-CD); test: SPR, Biacore T200; FcγR immobilised, 500 µg/ml injected
Protocol: as §1, §2

[5] = biological target: T3, human FcγRIIa (R&D Systems, 1330-CD); test: as above
Protocol: as §1, §2

| Binder | EC50 [1] [nM] | binding response at end of association (RU) [2] [RU] | binding response at end of association (RU) [3] [RU] | binding response at end of association (RU) [4] [RU] | binding response at end of association (RU) [5] [RU] |
| --- | --- | --- | --- | --- | --- |
| anti-mouse LAG-3/FITC mAb2 FS18-7-108-29/4420 comprising LALA mutation (bispecific antibody, human IgG1, kappa, L234A L235A, also called FS18-29/4420) heavy: EVKLDETGGGLVQPGRPMKLSCVASGFTFSDYWMNWVRQSPEKGLEWVAQIRNKPYNYETYYSDSVKGRFTISRDDSKSSVYLQMNNLRVEDMGIYYCTGSYYGMDYWGQGTSVTVSSASTKGPSVFPLAPSSKSTSGGTAALGCLVKDYFPEPVTVSWNSGALTSGVHTFPAVLQSSGLYSLSSVVTVPSSSLGTQTYICNVNHKPSNTKVDKKVEPKSCDKTHTCPPCPAPEAAGGPSVFLFPPKPKDTLMISRTPEVTCVVVDVSHEDPEVKFNWYVDGVEVHNAKTKPREEQYNSTYRVVSVLTVLHQDWLNGKEYKCKVSNKALPAPIEKTISKAKGQPREPQVYTLPPSWDEPWGEDVSLTCLVKGFYPSDIVVEWESNGQPENNYKTTPPVLDSDGSFFLYSKLTVPFERWMWPDEFSCSVMHEALHNHYTQKSLSLSPG light: DVVMTQTPLSLPVSLGDQASISCRSSQSLVHSNGNTYLRWYLQKPGQSPKVLIYKVSNRFSGVPDRFSGSGSGTDFTLKISRVEAEDLGVYFCSQSTHVPWTFGGGTKLEIKRTVAAPSVFIFPPSDEQLKSGTASVVCLLNNFYPREAKVQWKVDNALQSGNSQESVTEQDSKDSTYSLSSTLTLSKADYEKHKVYACEVTHQGLSSPVTKSFNRGEC | 2.29 |  |  |  |  |
| anti-FITC mAb 4420 without LALA mutation (wild-type IgG1) (antibody, also called mock mAb IgG1; 4420 mAb IgG1) heavy: not shown light: DVVMTQTPLSLPVSLGDQASISCRSSQSLVHSNGNTYLRWYLQKPGQSPKVLIYKVSNRFSGVPDRFSGSGSGTDFTLKISRVEAEDLGVYFCSQSTHVPWTFGGGTKLEIKRTVAAPSVFIFPPSDEQLKSGTASVVCLLNNFYPREAKVQWKVDNALQSGNSQESVTEQDSKDSTYSLSSTLTLSKADYEKHKVYACEVTHQGLSSPVTKSFNRGEC |  | 26 | 44 | 17.7 | 13 |
| anti-mouse LAG-3/FITC mAb2 FS18-7-108-35/4420 comprising LALA mutation (bispecific antibody, human IgG1, kappa, L234A L235A, also called FS18-35/4420) heavy: EVKLDETGGGLVQPGRPMKLSCVASGFTFSDYWMNWVRQSPEKGLEWVAQIRNKPYNYETYYSDSVKGRFTISRDDSKSSVYLQMNNLRVEDMGIYYCTGSYYGMDYWGQGTSVTVSSASTKGPSVFPLAPSSKSTSGGTAALGCLVKDYFPEPVTVSWNSGALTSGVHTFPAVLQSSGLYSLSSVVTVPSSSLGTQTYICNVNHKPSNTKVDKKVEPKSCDKTHTCPPCPAPEAAGGPSVFLFPPKPKDTLMISRTPEVTCVVVDVSHEDPEVKFNWYVDGVEVHNAKTKPREEQYNSTYRVVSVLTVLHQDWLNGKEYKCKVSNKALPAPIEKTISKAKGQPREPQVYTLPPSWDEPWGEDVSLTCLVKGFYPSDISVEWESNGQPENNYKTTPPVLDSDGSFFLYSKLTVPFERWMWPDEFSCSVMHEALHNHYTQKSLSLSPG light: DVVMTQTPLSLPVSLGDQASISCRSSQSLVHSNGNTYLRWYLQKPGQSPKVLIYKVSNRFSGVPDRFSGSGSGTDFTLKISRVEAEDLGVYFCSQSTHVPWTFGGGTKLEIKRTVAAPSVFIFPPSDEQLKSGTASVVCLLNNFYPREAKVQWKVDNALQSGNSQESVTEQDSKDSTYSLSSTLTLSKADYEKHKVYACEVTHQGLSSPVTKSFNRGEC | 2.38 |  |  |  |  |
| anti-FITC mAb 4420 comprising LALA mutation (antibody, human IgG1, kappa, L234A L235A, also called mock mAb LALA; 4420 LALA) heavy: not shown light: DVVMTQTPLSLPVSLGDQASISCRSSQSLVHSNGNTYLRWYLQKPGQSPKVLIYKVSNRFSGVPDRFSGSGSGTDFTLKISRVEAEDLGVYFCSQSTHVPWTFGGGTKLEIKRTVAAPSVFIFPPSDEQLKSGTASVVCLLNNFYPREAKVQWKVDNALQSGNSQESVTEQDSKDSTYSLSSTLTLSKADYEKHKVYACEVTHQGLSSPVTKSFNRGEC |  | 2 | 8 | -9.6 | -12.7 |
